Assay results: paper PMC4470706 (Journal of nuclear medicine : official publication, Society …, 2015)

Key:
PC-3 tumor–bearing mice = conditions: mouse, in vivo
in vivo = assay: in vivo; design: species or system mice; conditions: male, athymic nude (outbred) CrTac:NCr-Foxn1nu, mouse, iv, 11.1 MBq, total radioactivity, Activity concentration

## CC(C)C[C@H](NC(=O)C[C@H](O)[C@H](CC(C)C)NC(=O)[C@H](Cc1c[nH]cn1)NC(=O)CNC(=O)[C@@H](NC(=O)[C@H](C)NC(=O)[C@H](Cc1c[nH]c2ccccc12)NC(=O)[C@H](CCC(N)=O)NC(=O)[C@@H](Cc1ccccc1)NC(=O)CCOCCOCCOCCOCCNC(=O)CN1CCN(CC(=O)O)CCN(CC(=O)O)CCN(CC(=O)O)CC1)C(C)C)C(N)=O [^90Y-DOTA-AR, metal not drawn]
PC-3 tumor–bearing mice
  Radiation dose to kidney: 0.06 ± 0.01 Gy/MBq
  Radiation dose to kidney, range: 0.05–0.08 Gy/MBq
In vivo; PC-3 tumor
  tissue uptake at 1 h: 3.62 ± 0.95 %ID/g
  tissue uptake at 4 h: 2.92 ± 0.57 %ID/g
  tissue uptake at 24 h: 0.45 ± 0.04 %ID/g
  tissue uptake at 48 h: 0.1 ± 0.05 %ID/g
In vivo; kidney
  tissue uptake at 1 h: 1.76 ± 0.61 %ID/g
  tissue uptake at 4 h: 0.78 ± 0.14 %ID/g
  tissue uptake at 24 h: 0.17 ± 0.02 %ID/g
  tissue uptake at 48 h: 0.07 ± 0.01 %ID/g
In vivo; liver
  tissue uptake at 1 h: 0.21 ± 0.05 %ID/g
  tissue uptake at 4 h: 0.12 ± 0.06 %ID/g
  tissue uptake at 24 h: 0.04 ± 0.01 %ID/g
  tissue uptake at 48 h: 0.02 %ID/g
